No end group written: not given here. *: point of attachment. Biotin = O=C1N[C@H]2[C@H](CS[C@H]2CCCCC(=O)*)N1
Molecular target: T1, full length SARS-CoV-2 spike protein (SARS-CoV-2, UniProt P0DTC2)
T1 construct: source: bought: ACROBiosystems
Test: SPR
Settings: both partners purified

Biotin-MYCVFNRNEDACRYG (cysteine pairing not given here) [cellugyrin Inner loop 1A peptide] was tested, and the Kd was 4.53 mM.

Source: paper PMC11063343 (Frontiers in Cellular and Infection Microbiology, 2024)
